Reference: article PMC11369174, “Proteome-scale characterisation of motif-based interactome rewiring by disease mutations” (Molecular Systems Biology, 2024)
“And” between values parts separate entries of the source, which are not always exact repeats. Identical values can stand only once. Each block holds one substance with its values, some of them ahead of it.

Key:
[1] = biological target: importin subunit α-3 (KPNA4) ARM domain; assay: fluorescence polarisation displacement; details: major pocket
ABL1 SH3 (human) = ABL1 SH3 (human) (UniProt P00519); assay: fluorescence polarisation; displacement: unlabelled peptide titrated onto a complex of FITC-labelled peptide (10 nM) and protein domain (1-2x KD); 50 mM sodium phosphate buffer pH 7.4 (CASK: plus 100 mM NaCl); KD calculated from IC50; technical triplets
Chain of ABL1 SH3 (human) (P00519 61-121): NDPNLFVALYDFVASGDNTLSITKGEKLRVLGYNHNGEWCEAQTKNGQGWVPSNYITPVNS

[2] = biological target: MAP1LC3B ATG8 domain (human); assay: as above
[3] = biological target: MAP1LC3B ATG8 domain (human); assay: ITC; peptide titrated in tenfold excess in 16 injections against the protein domain; 50 mM sodium phosphate buffer pH 7.4, 1 mM DTT; iTC200
[4] = biological target: MAP1LC3B ATG8 domain (human) (UniProt Q9GZQ8); assay: ITC; peptide titrated in tenfold excess in 16 injections against the protein domain; 50 mM sodium phosphate pH 7.4, 1 mM DTT; iTC200; wild-type in technical duplicate, mutant in technical triplets; one line of constants for each repeat
FITC-PER2 = assay: fluorescence polarisation; saturation binding: dilution series of the protein domain added to 10 nM FITC-labelled peptide; 50 mM sodium phosphate pH 7.4, 0.05% Tween (protein dialysed in 50 mM sodium phosphate with 1 mM DTT; CASK kinase domain with 100 mM NaCl in addition); quadratic fit; technical triplets
FITC-3BP2 = assay: as above
FITC-TCF3 = assay: as above

Chain of ABL1 SH3 domain (P00519 61-121): as above
Chain of CREBBP KIX domain (Q92793 587-666): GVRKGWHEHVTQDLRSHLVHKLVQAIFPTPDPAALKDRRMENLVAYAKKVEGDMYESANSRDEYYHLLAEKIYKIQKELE

Substance: ABRAXAS1_(349-364) wild-type peptide R361Q
Kd [1]: 75 µM

Substance: BRCA2_(292-307) wild-type peptide
Kd [2]: 3.12 µM | Kd [3]: 20 to 100 µM

Substance: SQSTM1 334-349 P348L peptide
Kd [2]: 0.6 µM

Substance: SQSTM1 334-349 wild-type peptide
Kd [2]: 0.5 µM

Substance: BRCA2_(292-307) T298I/V299L/V300R peptide
Kd [2]: 0.52 µM | Kd [3]: 2 µM

Substance: BUB1_(486-501) wild-type peptide
Kd [2]: 7 µM

Substance: Peripheral plasma membrane protein CASK (CASK) kinase domain (from UniProt O14936 12-276) (domain or fragment)
Kd (FITC-PER2): 3.4 µM

Substance: BUB1_(486-501) S492F peptide
Kd [2]: 1.6 µM

Substance: CREBBP KIX domain (from UniProt Q92793 587-666) (domain or fragment)
Kd (FITC-TCF3): 35 µM

Results, then the substance that gave them:

Kd (ABL1 SH3 (human)): 560 µM
Substance: TP53 64-80 P72R peptide

Kd [4]: 109 µM and 63.7 µM and 18.2 µM | stoichiometry N [4]: 0.7 and 0.684
Substance: BRCA2 292-307 peptide, wild-type

Kd (FITC-3BP2): 3.7 µM
Substance: ABL1 SH3 domain (from UniProt P00519 61-121) (domain or fragment)

stoichiometry N [4]: 0.744 and 0.685 and 0.649
Substance: BRCA2 292-307 peptide, mutant T298I/V299L/V300R
